According to article doi:10.1101/2023.11.21.568018 (bioRxiv, 2023):
Changes are numbered by the printed parent chain. Numbers in names are those of the source.

B1: human Parkin R0RBR (141-465) (domain or fragment)
chain: SIYNSFYVYCKGPCQRVQPGKLRVQCSTCRQATLTLTQGPSCWDDVLIPNRMSGECQSPHCPGTSAEFFFKCGAHPTSDKETSVALHLIATNSRNITCITCTDVRSPVLVFQCNSRHVICLDCFHLYCVTRLNDRQFVHDPQLGYSLPCVAGCPNSLIKELHHFRILGEEQYNRYQQYGAEECVLQMGGVLCPRPGCGAGLLPEPDQRKVTCEGGNGLGCGFAFCRECKEAYHEGECSAVFEASGTTTQAYRVDERAAEQARWEAASKETIKKTTKPCPRCHVPVEKNGGCMHMKCPQPQCRLEWCWNCGCEWNRVCMGDHWFDV
B2: human Parkin R0RBR K211N (141-465) (domain or fragment)
chain: B1 chain with K71N

Target: phospho-NEDD8 (human (cDNA from HEK393T cells), UniProt Q15843 1-76, phosphoserine at 65)
Assay: crystal structure

binding result | Binder
binds | B1
binds | B2
